Assay results published in patent WO2022250107A1 (dated 2022).

Assays:
Test in all cases: cell-based or functional assay
[1] = biological target: S protein of SARS-CoV-2 alpha strain 2 (Accession ID EPI_ISL_804007; on infectious virus) (SARS-CoV-2, UniProt P0DTC2 14-1273)
[2] = biological target: S protein of SARS-CoV-2 delta strain JPN/TKYTK1734/2021 (on infectious virus) (SARS-CoV-2, UniProt P0DTC2 14-1273)
[3] = biological target: S protein of SARS-CoV-2 alpha strain 1 (JPN/QK002/2020, Accession ID EPI_ISL_768526; on infectious virus) (SARS-CoV-2, UniProt P0DTC2 14-1273)

Measured: 中和活性 IC50 (inhibition of infection of VeroE6/TMPRSS2 cells)

B1: EV053273 (antibody, V domains shown)
VH: QVQLVQSGAEVKEPGTSVKVSCKASGYIFTGYYIHWVRQAPGQGLEWMGWINPNSGGRNYTQKFQGRVTMTRDKSISTVYMELSGLRSDDTAIYYCARDNSWSTVQFCLDYWGQGTLVTVSS
VL: QSALTQPPSASGSPGQSVTISCTGTSSDVGSYNYVSWYQQYPGKAPKLMIYEVSKRPSGVPDRFSGSKSGNTASLTVSGLQAEDEADYYCSSYGGSNNLVFGGGTKLTVLG
≤ 10 ng/mL: [1] | [2] | [3]
